This series deals with Escherichia coli TOP10. The experiment in a line: shrunken log2 fold change of peptide-encoding DNA abundance (4.5 h post-induction vs induction); higher = less antimicrobial activity (less host growth inhibition). The settings on record: time post-induction: 4.5 h; library: site-saturation at positions 5, 18, 19, 20.
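Also: peptides expressed intracellularly from a pBAD plasmid library in pooled LB shake-flask culture, induced with 0.3% L-arabinose, DNA abundance read by NGS, three biological replicates, DESeq2 with apeglm shrinkage.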

Regarding RRIRCRPPRLPRPRPRPFGLPRP, the “shrunken log2 fold change” value was -0.0423. For the sequence RRIRPRPPRLPRPRPRPLHWPRP, the “shrunken log2 fold change” value is 0.481. Take RRIRDRPPRLPRPRPRPAYAPRP: the “shrunken log2 fold change” value was found to be 0.058.

With RRIRNRPPRLPRPRPRPTRWPRP, the “shrunken log2 fold change” value came to 0.292. To RRIRQRPPRLPRPRPRPFPLPRP belongs -0.0585; to RRIRPRPPRLPRPRPRPGCDPRP, 0.309. To RRIRSRPPRLPRPRPRPVDMPRP belongs 0.0294; to RRIRWRPPRLPRPRPRPSDPPRP, 0.00652; to RRIRTRPPRLPRPRPRPICVPRP, -0.289.

Consider RRIRVRPPRLPRPRPRPNVHPRP, for which the “shrunken log2 fold change” value is -0.546. The same measure for RRIRWRPPRLPRPRPRPAVWPRP: 0.32; for RRIRVRPPRLPRPRPRPPYVPRP: -0.153; for RRIRPRPPRLPRPRPRPNVYPRP: -0.177. To RRIRTRPPRLPRPRPRPNMIPRP belongs -0.277; to RRIRLRPPRLPRPRPRPSTLPRP, -0.552; to RRIRSRPPRLPRPRPRPQACPRP, 0.125. To RRIRARPPRLPRPRPRPSEFPRP belongs 0.00109. On to RRIRCRPPRLPRPRPRPVAPPRP, for which the “shrunken log2 fold change” value is 0.436. To RRIRLRPPRLPRPRPRPGWSPRP belongs 0.0496; to RRIRRRPPRLPRPRPRPKVAPRP, 0.0861. To RRIRERPPRLPRPRPRPWWVPRP belongs -0.056; to RRIRTRPPRLPRPRPRPVAIPRP, -0.168. As to RRIRGRPPRLPRPRPRPTENPRP, the “shrunken log2 fold change” value amounted to 0.682. To RRIRGRPPRLPRPRPRPSGWPRP belongs 1.52; to RRIRLRPPRLPRPRPRPWGEPRP, -0.0317; to RRIRERPPRLPRPRPRPEEEPRP, 0.102. In the case of RRIRHRPPRLPRPRPRPCSCPRP, the “shrunken log2 fold change” value is -0.0391.

RRIRFRPPRLPRPRPRPGFHPRP: the “shrunken log2 fold change” value is -0.416. On to RRIRERPPRLPRPRPRPNPCPRP, for which the “shrunken log2 fold change” value was -0.226. The same measure for RRIRYRPPRLPRPRPRPFQHPRP: -0.281; for RRIRERPPRLPRPRPRPSDCPRP: 0.00151; for RRIRPRPPRLPRPRPRPIEKPRP: 0.0388. RRIRLRPPRLPRPRPRPTEGPRP: the “shrunken log2 fold change” value turned out to be 0.166. The same measure for RRIRGRPPRLPRPRPRPKHRPRP: 0.449. RRIRPRPPRLPRPRPRPVYEPRP: the “shrunken log2 fold change” value was -0.0626. The same measure for RRIRSRPPRLPRPRPRPLQQPRP: 0.553; for RRIRLRPPRLPRPRPRPQCEPRP: -0.153. The same measure for RRIRYRPPRLPRPRPRPNRAPRP: -0.0548.

Consider RRIRTRPPRLPRPRPRPMGEPRP, for which the “shrunken log2 fold change” value was -0.0305. As to RRIRERPPRLPRPRPRPTNLPRP, the “shrunken log2 fold change” value is -0.0315. As to RRIRRRPPRLPRPRPRPYGEPRP, the “shrunken log2 fold change” value is -0.0212. To RRIRCRPPRLPRPRPRPLMVPRP belongs -0.519. The same measure for RRIRARPPRLPRPRPRPKMVPRP: 0.116; for RRIRVRPPRLPRPRPRPIHKPRP: -0.203. With RRIRSRPPRLPRPRPRPHDHPRP, the “shrunken log2 fold change” value was -0.23. The same measure for RRIRPRPPRLPRPRPRPWIRPRP: -0.175. To RRIRTRPPRLPRPRPRPFKAPRP belongs 0.0168; to RRIRNRPPRLPRPRPRPIPHPRP, 0.134. The same measure for RRIRDRPPRLPRPRPRPFRFPRP: -0.0342; for RRIRRRPPRLPRPRPRPFATPRP: 0.814.
